From patent US20240301052A1 (LANOVA MEDICINES DEVELOPMENT, published 2024)
Numbering of substitutions follows the chain as printed. Values belong to the binder of their own block, whether it stands above or below them.

Tests used:
[1] = molecular target: T1, human SLC34A2 (human, UniProt O95436 1-690); assay: FACS, OVCAR3 cells
T1 construct: whole, on cells; also called human solute carrier 34 A2; NaPi2b
T1 sequence (looked up): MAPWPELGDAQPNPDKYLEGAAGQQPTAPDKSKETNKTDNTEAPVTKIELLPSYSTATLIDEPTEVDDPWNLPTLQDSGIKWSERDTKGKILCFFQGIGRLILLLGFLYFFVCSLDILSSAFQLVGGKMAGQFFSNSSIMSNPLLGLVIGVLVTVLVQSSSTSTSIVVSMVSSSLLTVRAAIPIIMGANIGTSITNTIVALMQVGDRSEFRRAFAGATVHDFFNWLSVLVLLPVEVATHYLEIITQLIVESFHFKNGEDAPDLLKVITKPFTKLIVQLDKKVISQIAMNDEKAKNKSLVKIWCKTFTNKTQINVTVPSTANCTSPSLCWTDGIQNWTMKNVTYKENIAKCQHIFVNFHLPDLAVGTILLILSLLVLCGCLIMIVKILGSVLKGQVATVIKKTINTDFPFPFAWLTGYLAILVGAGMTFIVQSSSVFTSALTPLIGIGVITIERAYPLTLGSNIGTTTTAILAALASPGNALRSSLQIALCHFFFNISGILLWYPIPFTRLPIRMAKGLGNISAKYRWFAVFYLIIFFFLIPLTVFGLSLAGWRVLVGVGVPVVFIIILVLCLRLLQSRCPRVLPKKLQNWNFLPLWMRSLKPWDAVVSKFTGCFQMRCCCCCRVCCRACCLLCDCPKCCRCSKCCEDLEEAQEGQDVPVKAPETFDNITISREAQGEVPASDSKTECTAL
Protocol: The binding of these humanized antibodies to OVCAR3 cells was evaluated as described above, and the results are shown in FIG. 12A-D and Tables 16A-D.

[2] = molecular target: T1, human SLC34A2; assay: FACS, HEK293/human SLC34A2 cells
Protocol: (§1) Briefly, OVCAR3 cells or HEK293 cells expressing human SLC34A2 were incubated with chimeric antibodies (from 200 nM, 4 folds dilution, 8 points). After incubation at 4° C. for 60 minutes, the cells were washed with FACS buffer twice, then stained with fluorescent conjugated secondary antibody at 4° C. for 30 minutes. After that the cells were washed twice and analyzed by flow cytometry.

[3] = molecular target: T1, human SLC34A2; assay: FACS, OVCAR3 cells; remark: listed apart in the source
[4] = molecular target: T1, human SLC34A2; assay: FACS, OVCAR3 cells; remark: listed apart in the source
Protocol: In this example, cell based binding of chimeric antibodies (hIgG1) prepared from the murine antibodies on human SLC34A2 expressing cells were assessed using flow cytometry.
as §1

EC50 [2]: 63.4 nM
Top (MFI) [2]: 12700 MFI
B10: xi95H11A1D8VH-1 hIgG1 (antibody, V domains shown)
VH: QVQLQQPGAELVKPGASVKMSCKTSGYTFTTNNMHWVKQTPGQGLEWIGAIYPGNGATAYNQKFKGKATLTADKSSSTAYMQLSSLTSEASAVYYCARGMYGHGAMDYWGQGTSVIVSS
VL: DIVLTQSPATLSVTPGDSVSLSCRARQNIGNNLYWYQQKSNESPRLLIKYASQSISGIPSRFSGSGSGTDFTLTINSVETEDFGVYFCQQSFSWPLTFGAGTKLELK
notes: chimeric, hIgG1; the suffix VH-1 is not explained

EC50 [3]: 10.3 nM
Top (MFI) [3]: 27700 MFI
B18: 63A11D5B4.p1.z11 hIgG1 (antibody, V domains shown)
VH: QVQLVQSGAEVVKPGASVKMSCKTSGYTFITYNMHWVRQAPGQGLEWIGAIYPGSGDTSYNQKFKGRVTLTADKSTSTAYMELSSLRSEDTAVYYCSISTIITTGAVDYWGQGTLVTVSS
VL: DIQMTQSPSSLSTSVGDRVTITCKASQDVGTAVAWYQQKPGQSPKLLIYWTSTRHTGVPDRFSGSGSGTDFTLIIRSLQPEDVATYFCQQYSRIPLTFGGGTKVEIK
notes: humanized hIgG1

EC50 [4]: 1.68 nM
Top (MFI) [4]: 39600 MFI
EC50 [2]: 1.72 nM
Top (MFI) [2]: 109000 MFI
B20: xi7G10E11 hIgG1 (antibody, V domains shown)
VH: DVKLVESGGGLIKLGGSLKLSCAASGFTFSGYYMSWFRQTPEKRLELVAVINSNGGSTYYAVTVKGRFTISRDNAKNTLYLQMSSLKSEDTALYYCARHEGSQAWFAHWGQGTLVTVSA
VL: DIVMTQSHKFMSTSVGDRVSITCKASQDVTTAVAWYQQKPGQSPKLLIYWASTRHTGVPDRFTGSGSGTDYTLTISSVQAEDLALYYCQQHHSTPLTFGAGTKLELK
notes: chimeric, hIgG1

EC50 [4]: 4.67 nM
Top (MFI) [4]: 41000 MFI
EC50 [2]: 2.82 nM
Top (MFI) [2]: 107000 MFI
B21: xi67C9G11 hIgG1 (antibody, V domains shown)
VH: DVKLVESGGGLVKLGGSLKLSCAASGFTFSSYFMSWIRQTPEKRVDLVAVINSNGGSTYSPDTVKGRFTISRDNAKNTLYLQMTSLKSEDTALYYCARHFYSYDGAWFPYWGQGTLVTVSA
VL: B20 VL with S14L, T30S, A32S, Y71F, L96I, A100V
notes: chimeric, hIgG1

EC50 [4]: 9.06 nM
Top (MFI) [4]: 42500 MFI
EC50 [2]: 2.51 nM
Top (MFI) [2]: 106000 MFI
B22: xi25B11B9 hIgG1 (antibody, V domains shown)
VH: DVKLVESGGGLVRLGGSLKLSCAASGFTFSSHYMSWVRQTPKKRLELVATINSSGGNTYYPDTVKGRFTISRDNARNTLFLQMTSLKSEDTALYYCARQPINTVAYFDYWGQGTTLTVSS
VL: B20 VL with K9E, D17A, V29L, T56I, T69A, H91Y
notes: chimeric, hIgG1

EC50 [4]: 408 nM
Top (MFI) [4]: 29500 MFI
EC50 [2]: 378 nM
Top (MFI) [2]: 128000 MFI
B23: xi62C10B3D2 hIgG1 (antibody, V domains shown)
VH: QVHQQQSGPELVKPGASVRISCKASGYTFTSYYIHWVKQRPGQGLEWIGCIYPGNLFTKYNEKFKDKATLTADTSSTTAYMHLSSLTSEDSAVYFCARFLNWNAWYFDVWGAGTTVSVSS
VL: DVLMTQTPLSLPVSLGDQASISCRSSQSIEHSNGNTNLEWYLQKPGQSPRLLIYKVSNRFSGVPDRFSGSGSGTDFTLKITGVEAEDLGVYYCFQGSHFPWTFGGGTKLEIK
notes: chimeric, hIgG1

EC50 [4]: 4.9 nM
Top (MFI) [4]: 41300 MFI
EC50 [2]: 1.92 nM
Top (MFI) [2]: 111000 MFI
B24: xi11F6H8 hIgG1 (antibody, V domains shown)
VH: EVQLQQSGPELVKPGASVKISCKTSGFTFTEYTMHWVKQSHGKSLEWIGGINPNNGISSYNQNFKGKATLTVDKSSSTAYMELRSLTSEDSTVYYCARCRYYDTSYYDMDYWGQGTSVTVSS
VL: DIQMTQTTSSLSASLGDRVTISCRASQDIRNFLNWYQQKPDGTVKLLIYYTSRLHSGVPSRFSGSGSGTDYSLTISNLEEEDIATYFCQQSNTLPWTFGGGTKLEIK
notes: chimeric, hIgG1

EC50 [4]: 2.73 nM
Top (MFI) [4]: 26500 MFI
EC50 [2]: 1.31 nM
Top (MFI) [2]: 42000 MFI
B25: xi20H2F1 hIgG1 (antibody, V domains shown)
VH: EVKLVESGGNLVKPGGSLKLSCAASGFTFSSYAMSWVRQTPEKRLEWVASISNGGTTYYPDSVKGRFTISRDVARNILYLQMTSLRSEDTAMYYCARTHYRDFVYWGQGTLVTVSA
VL: EIVLTQAAFSNPVTLGTSASISCRSSKSLLHSNGITYLYWYLQKPGQSPQLLIYQMSNLASGVPDRFSCSGSGTDFTLRISRVEAEDVGVYYCAQNLEFPWTFGGGTKLEIK
notes: chimeric, hIgG1

The next lines start with the binder.

B1: 30H9B8F9.p1.z4 hIgG1 (antibody, V domains shown)
VH: QVQLVQSGAEVKKPGASVKVSCKASGYTFTTNNMHWVRQAPGQGLEWMGAIYPGSGATAYNQKFKGRVTMTRDTSTSTVYMELSSLRSEDTAVYYCASGMYGHGAMDYWGQGTLVTVSS
VL: DIVMTQSPSFLSASVGDRVTITCKASQDVGTAVAWYQQKPGKSPKLLIYWATTRHSGVPDRFTGSGSGTDFIFTISSVQPEDFATYFCQQYSSNPLTFGAGTKLEIK
notes: humanized hIgG1
EC50 [1]: 2.76 nM
Top (MFI) [1]: 20400 MFI

B2: 30H9B8F9.p1.z15 hIgG1 (antibody, V domains shown)
VH: QVQLVQSGAEVVKPGASVKMSCKTSGYTFTTNNMHWVKQAPGQGLEWIGAIYPGSGATAYNQKFKGRATLTADKSTSTAYMELSSLRSEATAVYYCARGMYGHGAMDYWGQGTSVTVSS
VL: B1 VL with V3Q, T63S, D70E
notes: humanized hIgG1
EC50 [1]: 1.05 nM
Top (MFI) [1]: 26500 MFI

B3: 30H9B8F9.p1.z16 hIgG1 (antibody, V domains shown)
VH: B2 VH
VL: B1 VL
notes: humanized hIgG1
EC50 [1]: 1.41 nM
Top (MFI) [1]: 26500 MFI

B4: 30H9B8F9.p1.z14 hIgG1 (antibody, V domains shown)
VH: B2 VH
VL: B1 VL with V3Q, M4L, T63S, D70E, I72T, V78L, A100Q
notes: humanized hIgG1
EC50 [1]: 1.31 nM
Top (MFI) [1]: 27300 MFI

B5: 30H9B8F9.p1.z10 hIgG1 (antibody, V domains shown)
VH: B2 VH with M20V, K38R, A68V, S114L
VL: B1 VL with V3Q, M4L, T63S, D70E, I72T, V78L, A100Q
notes: humanized hIgG1
EC50 [1]: 1.93 nM
Top (MFI) [1]: 30700 MFI

B6: 30H9B8F9.p1.z11 hIgG1 (antibody, V domains shown)
VH: B2 VH with M20V, K38R, A68V, S114L
VL: B1 VL with V3Q, T63S, D70E
notes: humanized hIgG1
EC50 [1]: 1.43 nM
Top (MFI) [1]: 27000 MFI

B7: 30H9B8F9.p1.z8 hIgG1 (antibody, V domains shown)
VH: B1 VH with A24T, M48I, R72A, S98R
VL: B1 VL
notes: humanized hIgG1
EC50 [1]: 1.9 nM
Top (MFI) [1]: 26200 MFI

B8: 30H9B8F9.p1.z12 hIgG1 (antibody, V domains shown)
VH: B2 VH with M20V, K38R, A68V, S114L
VL: B1 VL
notes: humanized hIgG1
EC50 [1]: 1.4 nM
Top (MFI) [1]: 27600 MFI

B9: 30H9B8F9.p1.z7 hIgG1 (antibody, V domains shown)
VH: B1 VH with A24T, M48I, R72A, S98R
VL: B1 VL with V3Q, T63S, D70E
notes: humanized hIgG1
EC50 [1]: 1.69 nM
Top (MFI) [1]: 26700 MFI

B11: 63A11D5B4.p1.z6 hIgG1 (antibody, V domains shown)
VH: B18 VH with V12K, M20V, L70M, K74T, A79V
VL: B18 VL with Q42K, D60S, R76S, F87Y
notes: humanized hIgG1
EC50 [3]: 36.8 nM
Top (MFI) [3]: 34600 MFI

B12: 63A11D5B4.p1.z3 hIgG1 (antibody, V domains shown)
VH: B18 VH with V12K, M20V, T24A, I48M, L70M, A72R, K74T, A79V, S97A, I98S
VL: B18 VL
notes: humanized hIgG1
EC50 [3]: 17.9 nM
Top (MFI) [3]: 28600 MFI

B13: 63A11D5B4.p1.z7 hIgG1 (antibody, V domains shown)
VH: B18 VH with V12K, M20V, L70M, K74T, A79V
VL: B18 VL
notes: humanized hIgG1
EC50 [3]: 61.1 nM
Top (MFI) [3]: 41000 MFI

B14: 63A11D5B4.p1.z1 hIgG1 (antibody, V domains shown)
VH: B18 VH with V12K, M20V, T24A, I48M, L70M, A72R, K74T, A79V, S97A, I98S
VL: B18 VL with T13A, Q42K, S43V, D60S, I74T, R76S, F87Y
notes: humanized hIgG1
EC50 [3]: 19.6 nM
Top (MFI) [3]: 28000 MFI

B15: 63A11D5B4.p1.z8 hIgG1 (antibody, V domains shown)
VH: B18 VH with V12K, M20V, L70M, K74T, A79V
VL: B18 VL with Q3V, S63T, G100S
notes: humanized hIgG1
EC50 [3]: 14.2 nM
Top (MFI) [3]: 27900 MFI

B16: 63A11D5B4.p1.z10 hIgG1 (antibody, V domains shown)
VH: B18 VH
VL: B18 VL with Q42K, D60S, R76S, F87Y
notes: humanized hIgG1
EC50 [3]: 12.3 nM
Top (MFI) [3]: 29800 MFI

B17: 63A11D5B4.p1.z2 hIgG1 (antibody, V domains shown)
VH: B18 VH with V12K, M20V, T24A, I48M, L70M, A72R, K74T, A79V, S97A, I98S
VL: B18 VL with Q42K, D60S, R76S, F87Y
notes: humanized hIgG1
EC50 [3]: 20.6 nM
Top (MFI) [3]: 28700 MFI

B19: 63A11D5B4.p1.z4 hIgG1 (antibody, V domains shown)
VH: B18 VH with V12K, M20V, T24A, I48M, L70M, A72R, K74T, A79V, S97A, I98S
VL: B18 VL with Q3V, S63T, G100S
notes: humanized hIgG1
EC50 [3]: 18.1 nM
Top (MFI) [3]: 29000 MFI
